Results: patent publication US20080233097A1, “Phosphorylation Site Of Mitogen-Activated Protein Kinases, Modified Proteins And Applications” (UNIVERSIDAD AUTONOMA DE MADRID, priority 2005, published 2008)

Assays:
MKK6CAM [1] = assay: p38 activation by MKK6CAM in situ (anti-phospho-p38) in HEK293 cells; type: cell-based, human; conditions: HEK293, 150 ng p38 plasmid, 50 ng pCDNA3-MKK6CAM
Description: In overexpression experiments analogous to those described previously, HEK293 cells, seeded in M6 and always in duplicate, were transfected with: 150 ng of pCDNA3-Flag-p38α WT, or pCDNA3-Flag-p38α T123D and 50 ng of pCDNA3-MKK6CAM, (or empty pCDNA3). p38 activation with the anti-phospho-p38 antibody was evaluated. For each of the two isoforms, the activation by MKK6CAM was in reference to the baseline situation, obtaining a certain activation level. 100% activation was established as the p38α WT activation in each experiment. Data (±SEM) of three independent experiments are shown. A two-sided Student's-t test was carried out and *p<0.0001 was obtained. The right-hand side panels (Western blot) illustrate one of the experiments. […]
The HE 293 cells, generally subjected to starvation (medium without serum) of a variable duration: 2 hours in the case of p38 and all night in the case of ERK, were stimulated and, after processing the lysate cells, the immunodetection of the phosphoproteins was carried out with the phospho-specific antibodies of the activation segments of both proteins. […] The quantification of the bands was carried out in a laser densitometer. In all the cases, the values obtained for the bands detected with the anti-phospho-protein antibody were normalized in relation to the total amount of p38 or ERK expressed in the cells. […]

MKK6CAM [2] = assay: p38 phosphorylation by MKK6CAM in vitro; type: biochemical; conditions: 150 nM fusion protein, 40 ng MKK6CAM
Description: (§1) The reactions were carried out at 30° C. for 30 minutes and the proteins were separated in 8% SDS-PAGE gels. The amount of p38 in each point was visualized by Coomassie Blue staining. Then the radioactivity in each p38 isoform was determined. […] FIG. 11B: In these same assays, the ability of MKK6CAM-activated GST-p38WT, GST-p38T123A and GST-p38T123D to phosphorylate 2 μg of GST-ATF2 is evaluated. The representative autoradiography (^32P) of the total GST-ATF2 control (Coomassie Blue) is attached.
As in the previous cases, the reactions were left to take place at 30° C. for 30 minutes and the proteins were resolved in 8% SDS-PAGE gels. With the purpose of assuring the inclusion of identical amounts of protein, they were visualized in the gel by Coomassie Blue staining. Subsequently, the radioactivity incorporated in each p38 isoform was determined.

MAPKAPK2 (MK2) = biological target: T1, MAPKAPK2 (MK2) (Homo sapiens, UniProt P49137); assay: GST pull-down of His-tagged MAPKAPK2; type: binding; conditions: GST-p38 300 nM, His-MK2 20 nM; vs T123A mutant or wild type
T1 construct: made in house
T1 sequence (P49137 with tags, fused parts or gaps): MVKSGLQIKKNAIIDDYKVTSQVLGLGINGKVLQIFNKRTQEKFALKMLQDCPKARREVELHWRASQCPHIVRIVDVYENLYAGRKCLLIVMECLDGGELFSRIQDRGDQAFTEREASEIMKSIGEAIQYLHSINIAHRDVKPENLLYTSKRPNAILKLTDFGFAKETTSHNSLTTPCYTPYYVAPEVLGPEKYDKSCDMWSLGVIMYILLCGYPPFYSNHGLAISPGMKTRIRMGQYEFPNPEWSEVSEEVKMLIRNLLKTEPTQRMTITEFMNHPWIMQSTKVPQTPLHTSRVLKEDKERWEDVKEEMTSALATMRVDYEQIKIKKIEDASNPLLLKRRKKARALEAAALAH
Description: (§2) Purified GST-p38 and its T123 mutants (300 nM) were incubated in the presence of purified MKK6 (3 nM) or His-tagged MAPKAPK2 ([…], 20 nM) in a pull down assay with GST as a negative control. Sedimented proteins were developed by Western Blot using anti-MKK6, anti-Histidine (for His-MK2) or anti-GST (for total amounts of GST-p38s) antibodies. In all panels, results are representative of three independent experiments performed in duplicate.
(§3) The proteins GST, GST-p38 wt, GST-p38T123A and GST-p38T123D were bacterially expressed and isolated using Gluthatione-Sepharose 4B (GE-Amersham) following standard procedures (Murga, C. et al. High affinity binding of beta-adrenergic receptor kinase to microsomal membranes. Modulation of the activity of bound kinase by heterotrimeric G protein activation. J Biol Chem 271, 985-994 (1996)). His-MAPKAPK2 was purified using Probond resin (Invitrogen) following manufacturer's indications. MKK6CAM was purchased from Upstate Biotech. The amount of proteins detailed in the legend to each figure were incubated in binding buffer (25 mM Tris pH 7.5, 0.25 M NaCl, 10 mM MgCl2, 5 mM NaF and 0.5% BSA) for 30 min at 30° C. with constant shaking. ATP (50 μM) was added for MAPKAPK2 pull downs. Precipitates were washed three times (10 ml) with the same buffer containing 0.5% Triton X100. Precipitated complexes were resolved by SDS-PAGE and developed by Western Blot.

MKK6 = assay: GST pull-down of purified MKK6; type: binding; conditions: GST-p38 300 nM, MKK6 3 nM; vs T123A mutant or wild type
Description: as §2, §3

GST-ATF2 = assay: phosphorylation of GST-ATF2 by MKK6CAM-activated p38; type: biochemical; conditions: with MKK6CAM, 2 μg GST-ATF2
Description: as §1
(§4) The ATF2 and MEF2A forms bound to GST were used to test the catalytic activity of GST-p38. In most cases, 2 μg of GST-ATF2 or GST-MEF2A, of own production, were used. The phosphorylation conditions are the same as set forth in the foregoing cases. Nevertheless, in other occasions, relevantly pointed out in the Figures, 0.2 μg of substrate were used and the phosphorylation reaction was allowed to take pace for 15 minutes only.

GST-MEF2A = assay: phosphorylation of GST-MEF2A by p38; type: biochemical; conditions: with MKK6CAM, 2 μg GST-MEF2A
Description: FIG. 12A: In vitro phosphorylations are carried out with the fusion proteins indicated in the Figure, in the presence (+) or absence (−) of recombinant MKK6CAM(40 ng) and 2 μg of GST-MEF2A. The assay was left to take place for 30 minutes. The proteins were separated in 8% SDS-PAGE, stained with CBB and the incorporated radioactivity (^32P) was detected. Panels of a representative experiment of the three assays carried out independently are provided. FIG. 12B: The baseline activity of the three p38 fusion proteins in the absence of the MKK6CAM activator was evaluated in the previously described conditions. A representative autoradiography after a long exposure is shown.
as §4

ability to associate to MK2 (MAPKAPK2 (MK2)): severely impaired
B1: p38T123D: p38α mutant; aspartic acid mimics the constitutively phosphorylated form of threonine 123 (protein, UniProt P47811 2-360, looked up, variant T123D)
Mitogen-activated protein …: SQERPTFYRQELNKTIWEVPERYQNLSPVGSGAYGSVCAAFDTKTGHRVAVKKLSRPFQSIIHAKRTYRELRLLKHMKHENVIGLLDVFTPARSLEEFNDVYLVTHLMGADLNNIVKCQKLDDDHVQFLIYQILRGLKYIHSADIIHRDLKPSNLAVNEDCELKILDFGLARHTDDEMTGYVATRWYRAPEIMLNWMHYNQTVDIWSVGCIMAELLTGRTLFPGTDHIDQLKLILRLVGTPGAELLKKISSESARNYIQSLAQMPKMNFANVFIGANPLAVDLLEKMLVLDSDKRITAAQALAHAYFAQYHDPDDEPVADPYDQSFESRDLLIDEWKSLTYDEVISFVPPPLDQEEMES
modifications: GST or Flag tag in some forms
activation by MKK6CAM versus Flag-p38WT (MKK6CAM [1]): considerable reduction
phosphorylation by MKK6CAM (32P) (MKK6CAM [2]): much worse MKK6CAM substrate than the other two p38
ability to associate to MKK6 (MKK6): severely impaired
catalytic activity on GST-ATF2 (GST-ATF2): lacks the most minimum catalytic activity
catalytic activity on MEF2A (GST-MEF2A): completely abolished
